PMC5099578, “A structural and functional study on the 2-C-methyl-D-erythritol-4-phosphate cytidyltransferase (IspD) from Bacillus subtilis” (Scientific Reports, 2016)

B1: BsIspD (Bacillus subtilis subsp. subtilis str. 168) (protein)
chain: MSYDVVIPAAGQGKRMKAGRNKLFIELKGDPVIIHTLRVFDSHRQCDKIILVINEQEREHFQQLLSDYPFQTSIELVAGGDERQHSVYKGLKAVKQEKIVLVHDGARPFIKHEQIDELIAEAEQTGAAILAVPVKDTIKRVQDLQVSETIERSSLWAVQTPQAFRLSLLMKAHAEAERKGFLGTDDASLVEQMEGGSVRVVEGSYTNIKLTTPDDLTSAEAIMESESGNKHV
notes: full length (699 bp gene, 232 residues built); pGEX-6P-1, expressed in E. coli, GST tag cut with PreScission protease; homodimer
B2: EcIspD (Escherichia coli K-12) (protein)
chain: ATTHLDVCAVVPAAGFGRRMQTECPKQYLSIGNQTILEHSVHALLAHPRVKRVVIAISPGDSRFAQLPLANHPQITVVDGGDERADSVLAGLKAAGDAQWVLVHDAARPCLHQDDLARLLALSETSRTGGILAAPVRDTMKRAEPGKNAIAHTVDRNGLWHALTPQFFPRELLHDCLTRALNEGATITDEASALEYCGFHPQLVEGRADNIKVTRPEDLALAEFYLTRTIHQENT
notes: pET22b, C-terminal His6 tag removed with thrombin; expressed in E. coli BL21 (DE3)

Experiments:
Test in all cases: purified protein
purified protein [1] = substrate: C[C@](O)(CO)[C@H](O)COP(=O)(O)O; assay type: biochemical, Bacillus subtilis; details: CTP co-substrate, 1 mM MgCl2, 0.1 M Tris-HCl pH 8.0, 1 mM DTT, 30 °C, MEP varied 10-400 μM, paper inconsistent: text gives 132.8 for MEP, Table 2 prints it under CTP
purified protein [2] = substrate: Nc1ccn([C@@H]2O[C@H](COP(=O)(O)OP(=O)(O)OP(=O)(O)O)[C@@H](O)[C@H]2O)c(=O)n1; assay type: biochemical, Bacillus subtilis; details: MEP co-substrate, 1 mM MgCl2, 0.1 M Tris-HCl pH 8.0, 1 mM DTT, 30 °C, CTP varied 10-500 μM, paper inconsistent: text gives 124.8 for CTP, Table 2 prints it under MEP
purified protein [3] = substrate: Nc1ccn([C@@H]2O[C@H](COP(=O)(O)OP(=O)(O)OP(=O)(O)O)[C@@H](O)[C@H]2O)c(=O)n1; details: MEP co-substrate, 1 mM MgCl2, 0.1 M Tris-HCl pH 8.0, 1 mM DTT, 30 °C, CTP varied 10-500 μM, paper inconsistent: text gives 291.5 for CTP (kcat 2307.7), Table 2 prints it under MEP (kcat 2307.2)

Row | Protein | Km (purified protein [1]) [µM] | kcat (purified protein [1]) [s⁻¹] | kcat/Km (purified protein [1]) [M⁻¹ s⁻¹] | Km (purified protein [2]) [µM] | kcat (purified protein [2]) [s⁻¹] | kcat/Km (purified protein [2]) [M⁻¹ s⁻¹] | Km (purified protein [3]) [µM] | kcat (purified protein [3]) [s⁻¹] | kcat/Km (purified protein [3]) [M⁻¹ s⁻¹]
1 | B1 | 132.8 ± 29 | 71.2 | 536000 | 124.8 ± 19 | 36.3 | 291000 | – | – | –
2 | B2 | – | – | – | – | – | – | 291.5 ± 44 | 38.5 | 132000
